This note sets out measurements from paper PMC11068011 (Science Advances, 2024).

This experiment deals with T1, Recombinant p47-GST (human, UniProt Q9UNZ2 1-370).
T1 construct: p47 (NSFL1C), recombinant, bought (Novus H00055968-P01); source: bought: Novus, H00055968-P01, purified from wheat germ
T1 sequence (looked up): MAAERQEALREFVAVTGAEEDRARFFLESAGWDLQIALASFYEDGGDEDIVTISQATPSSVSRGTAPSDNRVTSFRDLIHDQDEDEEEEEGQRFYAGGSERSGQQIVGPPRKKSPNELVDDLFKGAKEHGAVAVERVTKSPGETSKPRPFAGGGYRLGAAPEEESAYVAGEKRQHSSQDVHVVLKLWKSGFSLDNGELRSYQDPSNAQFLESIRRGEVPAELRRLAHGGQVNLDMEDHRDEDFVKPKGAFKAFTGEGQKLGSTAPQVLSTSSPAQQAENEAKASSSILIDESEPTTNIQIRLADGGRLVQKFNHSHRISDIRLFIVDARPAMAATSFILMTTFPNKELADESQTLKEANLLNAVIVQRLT
As to the kind of experiment: pull-down; In vitro binding assay: 1 μg p47-GST and 2 μg p37 (WT or SHP), with or without 2 μg purified VCP, 1 hour at 4°C, then glutathione beads 1 hour; 25 mM Hepes pH 7.4, 150 mM NaCl, 0.01% Triton X-100, 5% glycerol. The following applies: both partners purified.

B1: purified WT p37 (natural protein, human, UniProt Q14CS0 1-331, looked up)
chain: MAEGGGPEPGEQERRSSGPRPPSARDLQLALAELYEDEVKCKSSKSNRPKATVFKSPRTPPQRFYSSEHEYSGLNIVRPSTGKIVNELFKEAREHGAVPLNEATRASGDDKSKSFTGGGYRLGSSFCKRSEYIYGENQLQDVQILLKLWSNGFSLDDGELRPYNEPTNAQFLESVKRGEIPLELQRLVHGGQVNLDMEDHQDQEYIKPRLRFKAFSGEGQKLGSLTPEIVSTPSSPEEEDKSILNAVVLIDDSVPTTKIQIRLADGSRLIQRFNSTHRILDVRNFIVQSRPEFAALDFILVTSFPNKELTDESLTLLEADILNTVLLQQLK
notes: p37 (UBXN2B), human, wild type, from pGEX-6P-1 p37; also called p37 WT; p37WT; source: E. coli Rosetta 2 BL21 (DE3), purified (glutathione sepharose, eluted by PreScission cleavage)
With B1, the binding result is reported as “binds”.
